The target in assay [1] is T1, recombinant cynomolgus MerTK extracellular domain (cynomolgus, UniProt Q12866 21-505 (human entry)).
T1 construct: also called cyno MerTK ECD; not shown: polyHis or TEVS/Thrombin/murine IgG2a-Fc tag
T1 chain: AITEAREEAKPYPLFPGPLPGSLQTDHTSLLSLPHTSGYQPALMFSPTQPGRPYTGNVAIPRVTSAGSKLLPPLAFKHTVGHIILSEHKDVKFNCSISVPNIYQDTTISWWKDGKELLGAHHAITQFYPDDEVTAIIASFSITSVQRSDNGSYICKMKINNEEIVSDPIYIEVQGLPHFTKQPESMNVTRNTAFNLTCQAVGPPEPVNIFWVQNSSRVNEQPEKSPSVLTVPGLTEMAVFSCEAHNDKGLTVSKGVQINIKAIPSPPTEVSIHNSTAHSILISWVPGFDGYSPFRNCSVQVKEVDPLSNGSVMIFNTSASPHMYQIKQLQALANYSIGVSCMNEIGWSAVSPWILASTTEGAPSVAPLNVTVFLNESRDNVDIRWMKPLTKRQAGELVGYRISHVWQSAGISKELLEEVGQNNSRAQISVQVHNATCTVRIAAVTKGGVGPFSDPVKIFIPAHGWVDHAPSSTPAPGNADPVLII
The assay is described as follows: SPR Carterra LSA. The procedure: (§1) Binding kinetics of anti-MerTK IgG1 antibodies of the present disclosure to human, cyno, and murine MerTK were evaluated using a Carterra LSA instrument (Carterra, Salt Lake City, UT). […] A HC200M sensor chip (Carterra) was activated using the single channel flow cell with a 7-minute injection of a 1:1:1 mixture of 100 mM MES pH 5.5, 100 mM sulfo-NHS, 400 mM EDC (all reconstituted in MES pH 5.5; 100 μl of each mixed in vial immediately before running assay). After switching to the multi-channel array flow cell, the antibodies were injected over the activated chip in three 96-spot arrays for 10 minutes each. The remaining unconjugated active groups on the chip were then blocked by injecting 1M Ethanolamine pH 8.5 (Carterra) for 7 minutes using the single channel flow cell. The resulting sensor chip contained three spots for each antibody, at three different densities. Two independent experiments were performed as follows, resulting in an N of between one and six determinations for each antibody. Spots that yielded less than 25 RU of analyte binding were excluded from further analysis.
(§2) After priming with running buffer (HBS-TE, Carterra) with 0.5 mg/ml BSA (Sigma), the immobilized anti-MerTK antibodies were tested for their ability to bind to several forms of recombinant MerTK extracellular domain, including human, cynomolgus, and mouse orthologs as described above. Estimates of affinity were generated by injecting each analyte over the entire antibody array using the single channel flow cell. MerTK analytes were diluted with running buffer, in a series of six, three-fold serial dilutions starting from 1 μM for human and cynomolgus MerTK, and 600 nM for mouse MerTK. Analytes were injected for 5 minutes, and dissociation was followed for 10 minutes. After each analyte injection, antibodies were regenerated with either Protein A/G Elution Buffer (Thermo) with 1M NaCl (Teknova), or with 10 mM Glycine pH 2.5. Three buffer blanks were run between each series (one species per series). Data were processed and analyzed using NextGenKIT high-throughput kinetics analysis software (Carterra).

In assay [2] the target is T2, recombinant human MerTK extracellular domain (human, UniProt Q12866 21-505).
T2 construct: also called human MerTK ECD; not shown: polyHis or TEVS/Thrombin/murine IgG2a-Fc tag
T2 sequence: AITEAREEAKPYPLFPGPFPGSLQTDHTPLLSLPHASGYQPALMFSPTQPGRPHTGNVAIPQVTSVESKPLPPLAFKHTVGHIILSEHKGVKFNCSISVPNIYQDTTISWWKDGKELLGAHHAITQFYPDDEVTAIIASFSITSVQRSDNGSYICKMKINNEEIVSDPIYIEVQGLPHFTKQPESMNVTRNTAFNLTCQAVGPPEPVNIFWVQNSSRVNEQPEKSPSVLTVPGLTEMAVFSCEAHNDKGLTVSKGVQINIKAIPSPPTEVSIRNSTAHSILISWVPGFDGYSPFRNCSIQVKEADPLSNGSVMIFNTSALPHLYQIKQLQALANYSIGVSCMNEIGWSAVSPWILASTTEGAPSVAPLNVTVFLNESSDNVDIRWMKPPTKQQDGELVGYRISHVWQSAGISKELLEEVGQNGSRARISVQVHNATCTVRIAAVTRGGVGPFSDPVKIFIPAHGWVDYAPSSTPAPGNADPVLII
The assay is described as follows: SPR Carterra LSA, Ab immobilised. The procedure: as §1, §2

Numbering of substitutions follows the chain as printed.

B1: MTK-223 (antibody, human IgG1, V domains shown)
VH: DVQLQESGPGLVKPSQSLSLTCSVTGYSITSGYYWNWIRQFPGNKLEWMGYISYDGTNNYNPSLKNRISITRDTSENQFFLKLNSVTTEDTATYFCVRGAGYWGQGTTLTVSS
VL: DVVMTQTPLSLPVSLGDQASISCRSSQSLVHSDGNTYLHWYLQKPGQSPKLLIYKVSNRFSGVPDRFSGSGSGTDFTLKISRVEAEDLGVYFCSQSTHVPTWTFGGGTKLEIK
The Kd is the concentration at which binding is half-saturated. With B1, the “Ratio of KD for Cynomolgus vs Human MerTK” value (from here on “Ratio of KD for Cynomolgus”) in assay [1] worked out at 2.5 ratio. In addition, in assay [2], the Kd came out at 0.075 µM.

B2: MTK-231 (antibody, human IgG1, V domains shown)
VH: B1 VH with N58Y, N61H, E76K, K82T, Y94F, F95Y, V97T, A100G, T108S, L109V
VL: DVVMTQTPLSLPVSLGDQASISCRSSQSLVHSDGNTYLHWYLQKPGQSPKLLIYKVSNRFSGVPDRFSGSGSGTDFTLKISRLEAEDLGIYFCSQTTHIPLTFGSGTKLEIK
For the molecule B2, the “Ratio of KD for Cynomolgus” value in assay [1] is 1.8 ratio. In addition, in assay [2], the Kd was found to be 0.026 µM.

B3: MTK-228 (antibody, human IgG1, V domains shown)
VH: QDQLQQSGPELVKPGASVKISCKASGYSFTSYYIHWVKQRPGQGLEWVGWIFPGNGNTKYNERFKGKATLTADTSSSTAYMQLSSLTSEDSAVYYCARLGLIYALDYWGQGTSVTVSS
VL: DAVMTQTPLSLPVSLGDQASISCRSSQSLENSNGNTYLHWYLQKPGQSPQLLIYRVSNRFSGVLDRFSGSGSGTDFTLKISRVEAEDLGVYFCLQVTHVPFTFGSGTKLEIK
Consider B3, for which the “Ratio of KD for Cynomolgus” value in assay [1] stood at 1.1 ratio. In addition, in assay [2], the Kd was determined as 0.042 µM.

B4: MTK-218 (antibody, human IgG1, V domains shown)
VH: B3 VH with D2V, A16T, E46D, V48I, G56R, K59Q, R63K
VL: B3 VL with N35H, L64Q
For B4, the “Ratio of KD for Cynomolgus” value in assay [1] came to 1.3 ratio. Further, the dissociation constant Kd in assay [2] amounted to 0.064 µM.

B5: MTK-226 (antibody, human IgG1, V domains shown)
VH: B3 VH with D2V, V48I, R63N, K65R
VL: B3 VL with N31S, K79Q
In the case of B5, the “Ratio of KD for Cynomolgus” value in assay [1] is 1.2 ratio. For the same molecule, the Kd in assay [2] stood at 0.039 µM.

B6: MTK-207 (antibody, human IgG1, V domains shown)
VH: QVQLKESGPGLVAPSQSLSITCTVSGISLTSYGVSWVRQPPGKGLEWLGIIWGDGSTNYHSALISRLSISKDNSKSQVFLKLNSLQTDDTATYYCAKGRYGNYEDWYFDVWGTGTTVTVSS
VL: DIQMTQSPASLSASVGETVTITCRASGNIHNYLAWYQQKQGKSPQLLVYNAKTLAAGVPSRFSGSGSGTQYSLKINSLQPEDFGSYYCQHFWSIPLTFGAGTKLELK
In the case of B6, the Kd in assay [2] was found to be 0.052 µM.

B7: MTK-213 (antibody, human IgG1, V domains shown)
VH: QVQLQQPGAELVKPGASVKMSCKASGYTFTSYWITWVKQRPGQGHEWIGEIYPGIGSTNYNEKFKSKATLTVDTSSRTAYMQLSSLTSEDSAVYFCARGAYTKYYFDYWGQGTTLTVSS
VL: DIVMTQSHKFMSTSVGDRVSITCKASQDVGDAVAWYQQKPGQTPKLLIYWASTRHTGVPDRFTGSGSGTDFTLTISNVQSEDLADYFCQQYSSYLMYTFGGGTKLEIK
For the molecule B7, in assay [1], the “Ratio of KD for Cynomolgus” value came to 0.9 ratio. For the same molecule, the Kd in assay [2] was 0.064 µM.

B8: MTK-208 (antibody, human IgG1, V domains shown)
VH: QVQLQQPGAELVVPGASVRLSCKASGYTFINYWMHWVKQRPGQGLEWIGEIDPSDSYANYNQKFKDKSTLSLDKSSSTAYMQLSSLTSEDSAVYYCARCDYYGRLDYWGQGTTLTVSS
VL: QVVLTQSPAIMSASPGEKVTITCSASSSVSYMLWFQQKPGTSPKLWIYSTSNLASGVPARFSGSGSGTSYSLTISRLEAEDAATYYCQQRSSYPPITFGAGTKLELK
Turning to B8, the “Ratio of KD for Cynomolgus” value in assay [1] stood at 1.8 ratio. In addition, in assay [2], the Kd was 0.019 µM.

B9: MTK-225 (antibody, human IgG1, V domains shown)
VH: EVQLQQSGPELVKPGASVKIFCKASGYTFTAYNMDWVKQSHGKSLEWIGDINPNNGGTIYNQKFKGKATLTVDKSSSTAYMELRSLTSEDTAVYYCARRRRYGNTYYWYFDVWGTGTTVTVSS
VL: DIQMTQSPASLSVSVGETVTITCRASENIYSSLAWYQQKQGKSPQLLVYAATNLADGVPSRFSGSGSGTQFYLKINGLQSEDFGSYYCQHFWGTSYTFGGGTKLEIK
Take B9: the “Ratio of KD for Cynomolgus” value in assay [1] turned out to be 1.5 ratio. Moreover, in assay [2], the Kd was determined as 0.052 µM.

B10: MTK-220 (antibody, V domains shown)
VH: EVQLVESGGGLVKPGGSLKLSCAASGFTFSDYGMHWVRQAPEKGLEWVAFISGGSGTIYYEDTVKGRFTISRDNAKNTLFLQMTSLRSEDTAMYYCTRGGNYFDYWGQGTTLTVSS
VL: NIMLTQSPSSLAVSAGEKVTMTCKSSQSVLYSSNQKNYLAWYQQKPGQSPKLLIYWASTRESGVPDRFTGSGSGTDFTLTISNVQAEDLAVYYCHQYFSSWTFGGGTKLEIK
With B10, the “Ratio of KD for Cynomolgus” value in assay [1] was found to be 2.7 ratio. Further, the dissociation constant (Kd) in assay [2] is 0.15 µM.

B11: MTK-204 (antibody, human IgG1, V domains shown)
VH: B10 VH with F50Y, G53S, S55T, G56S, T97A, N101L, Y102L
VL: B10 VL with L4M, T22S, Y55Q, G74E, S82R, N83S
B11: the “Ratio of KD for Cynomolgus” value in assay [1] is 2.8 ratio. Moreover, in assay [2], the dissociation constant (Kd) was 0.24 µM.

B12: MTK-202 (antibody, human IgG1, V domains shown)
VH: EVQLVESGGGLVKPGGSLKLSCAASGFTFSDFGMHWVRQVPEKGLEWVAFISGGSNTIYYTDTVKGRFTISRDNAKNTLFLQMTSLRSEDTAMYYCVRNGNSFAYWGQGTLVTVSA
VL: B10 VL with L4M, T22N, V84I, V91I, S99F
In the case of B12, the “Ratio of KD for Cynomolgus” value in assay [1] was found to be 4.8 ratio. Besides, the Kd in assay [2] is 0.033 µM.

B13: MTK-216 (antibody, human IgG1, V domains shown)
VH: B10 VH with G53S, G56T, E61A, F80I, M93I, N101F, Y102H, F103L
VL: B10 VL with N1S, L4M, T22G, S33A, K36Q, P50L, N83S
Turning to B13, the Kd in assay [2] is 0.041 µM.

B14: MTK-211 (antibody, human IgG1, V domains shown)
VH: QVQLQQSGAELMKPGASVKLSCKATGYTFTGYWIEWVKQRPGHGLEWIGEILPGSGGSNYNEKFKGKATFTADTSSNTAYIQLSSLTTEDSAIYCCARGEPSYFSDAGFAYWGQGTLVTVSA
VL: QIVLTQSPAVMSASPGEKVTMTCSASSSITYMHWYQQKPGTSPKRWIYDTSKLASGVPARFSGSGSGTSYFLTISSMEAEDVATYYCHQRSTYPYTFGGGTKLEIM
Turning to B14, in assay [1], the “Ratio of KD for Cynomolgus” value is 1.1 ratio. Also, the Kd in assay [2] came to 0.0013 µM.

B15: MTK-215 (antibody, human IgG1, V domains shown)
VH: EVQLVESGGGLVKPGGSLKLSCAASGFIFSDYGMHWVRQAPEKGLEWVAYISSGSSTIYYGDTVKGRFTISRDNAKNTLFLQMTSLRSEDTAMYYCAKGGRYGAMDYWGHGTSVTVSS
VL: DIVLTQSPATLSVTPGDSVSLSCRASQSISNNLHWYQQKSHESPRLLIKNPSQSISGIPSRFGARGSGTDFTLIINSVETEDLGVYFCQQSNSWPFTFGSGTKLEIK
Turning to B15, in assay [1], the “Ratio of KD for Cynomolgus” value came out at 4.3 ratio. Further, the Kd in assay [2] stood at 0.37 µM.

(Values after US20240294650A1 (Alector, published 2024).)
